In patent US20170088632A1 (OMEROS, published 2017):

Key:
[1] = target: T1, human MASP-2 (human, UniProt O00187 16-686); experiment: cell-based or functional assay
[2] = target: T1, human MASP-2; experiment: cell-based or functional assay; remark: listed apart in the source
[3] = target: T1, human MASP-2; experiment: cell-based or functional assay; remark: listed apart in the source
[4] = target: T1, human MASP-2; experiment: cell-based or functional assay; remark: listed apart in the source
[5] = target: T2, African Green monkey MASP-2 (in African Green monkey serum) (African Green monkey); experiment: cell-based or functional assay
[6] = target: T3, human MASP-2A (catalytically inactive human MASP-2, Ser618 to Ala618) (human, UniProt O00187 16-686); experiment: SPR (Biacore), MASP-2A amine coupled to CM5 chip, scFv monomer in solution
T3 construct: the ELISA and Biacore methods say only 'MASP-2A', so a tag may have been present; also called huMASP2A; huMASP-2A

[7] = target: T1, human MASP-2; experiment: cell-based or functional assay; remark: listed apart in the source
[8] = target: T1, human MASP-2; experiment: titration ELISA on MASP-2 (10 µg/ml)
[9] = target: T2, African Green monkey MASP-2 (in African …); experiment: cell-based or functional assay; remark: listed apart in the source
[10] = target: rat MASP-2 (in rat serum) (rat, UniProt Q9JJS8 20-685); experiment: cell-based or functional assay
[11] = target: T1, human MASP-2; experiment: cell-based or functional assay; remark: listed apart in the source
[12] = target: T2, African Green monkey MASP-2 (in African …); experiment: cell-based or functional assay; remark: listed apart in the source

T1 sequence (O00187 16-686): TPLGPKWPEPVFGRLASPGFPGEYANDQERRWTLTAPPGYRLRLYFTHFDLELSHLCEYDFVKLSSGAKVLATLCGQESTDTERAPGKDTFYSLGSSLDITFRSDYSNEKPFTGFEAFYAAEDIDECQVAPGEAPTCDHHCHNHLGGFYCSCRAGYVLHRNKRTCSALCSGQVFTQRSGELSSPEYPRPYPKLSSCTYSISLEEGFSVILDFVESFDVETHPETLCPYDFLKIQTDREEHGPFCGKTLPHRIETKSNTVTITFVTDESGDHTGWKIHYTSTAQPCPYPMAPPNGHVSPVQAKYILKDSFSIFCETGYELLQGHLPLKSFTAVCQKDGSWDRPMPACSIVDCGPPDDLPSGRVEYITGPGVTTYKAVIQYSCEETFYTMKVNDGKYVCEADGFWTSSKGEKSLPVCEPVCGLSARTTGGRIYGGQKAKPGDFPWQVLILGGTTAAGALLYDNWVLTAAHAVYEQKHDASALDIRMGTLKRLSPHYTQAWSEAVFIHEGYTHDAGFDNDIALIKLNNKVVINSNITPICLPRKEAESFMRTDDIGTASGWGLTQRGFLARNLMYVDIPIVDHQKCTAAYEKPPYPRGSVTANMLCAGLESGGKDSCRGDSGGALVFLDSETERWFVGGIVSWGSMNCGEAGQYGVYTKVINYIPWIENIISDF
Chain of rat MASP-2 (in rat serum) (Q9JJS8 other isoform, or with tags, fused parts or gaps limits assumed): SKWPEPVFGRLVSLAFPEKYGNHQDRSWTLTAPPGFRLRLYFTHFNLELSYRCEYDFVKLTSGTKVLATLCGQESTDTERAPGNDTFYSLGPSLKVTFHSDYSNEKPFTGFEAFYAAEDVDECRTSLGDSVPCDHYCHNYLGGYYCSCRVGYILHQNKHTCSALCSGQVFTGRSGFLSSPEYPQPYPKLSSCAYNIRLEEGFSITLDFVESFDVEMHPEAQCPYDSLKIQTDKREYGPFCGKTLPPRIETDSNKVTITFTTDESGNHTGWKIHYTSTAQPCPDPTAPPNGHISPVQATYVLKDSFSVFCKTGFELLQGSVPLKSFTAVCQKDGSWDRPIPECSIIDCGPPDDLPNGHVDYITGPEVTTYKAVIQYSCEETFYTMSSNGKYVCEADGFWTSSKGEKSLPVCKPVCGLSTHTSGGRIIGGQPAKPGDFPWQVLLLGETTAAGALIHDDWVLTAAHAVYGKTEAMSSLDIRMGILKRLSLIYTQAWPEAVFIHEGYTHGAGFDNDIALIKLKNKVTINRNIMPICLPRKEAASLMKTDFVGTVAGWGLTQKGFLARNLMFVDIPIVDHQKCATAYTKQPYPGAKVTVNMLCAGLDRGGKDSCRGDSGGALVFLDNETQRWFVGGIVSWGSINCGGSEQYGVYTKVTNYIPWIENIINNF
T3 sequence (O00187 16-686 S633A): as the sequence (O00187 16-686) above, with S618A counted along it

Binder | C3 convertase assay using 1% human serum, IC50 (first experiment) [1] [nM] | C3 convertase assay using 1% human serum, IC50 (second experiment) [1] [nM] | C3b deposition assay in 1% human serum, IC50 [2] [nM] | Inhibitory activity in Human Serum IC50 (C3b deposition, 0.5% human serum) [3] [nM] | Functional IC50, C3b deposition, human serum Exp #1 [4] [nM] | Functional IC50, C3b deposition, human serum Exp #2 [4] [nM] | Functional IC50, C3b deposition, human serum Exp #3 [4] [nM] | Functional IC50, C3b deposition, human serum Exp #4 [4] [nM] | Functional IC50, C3b deposition, non-human primate serum Exp #1 [5] [nM] | Functional IC50, C3b deposition, non-human primate serum Exp #2 [5] [nM] | African Green Monkey C3 assay IC50 [9] [nM] | also measured
18L16 mother clone, wild type IgG4 format (antibody, V domains shown) VH: QVTLKESGPVLVKPTETLTLTCTVSGFSLSNARMGVSWIRQPPGKALEWLAHIFSNDEKSYSTSLKSRLTISKDTSKSQVVLTMTNMDPVDTATYYCARMAILTAGGMDVWGQGTTVTVS VL: LTQPPSVSASPGQTASITCSGDKLGDKYVSWYQQKPGRSPVLVIYRDTKRPSGIPERFSGSNYGNTATLTISGTQAVDEADYYCQAWDSGSGVFGGGTKVTVLA | 33.9 | 22 | 59 | – | – | – | – | – | – | – | – | C3 convertase assay using 1% human serum, fold improvement of IC50 (scFv to divalent form), first experiment [1]: ~4.7 fold; C3 convertase assay using 1% human serum, fold improvement of IC50 (scFv to divalent form), second experiment [1]: ~8.7 fold
scFv mother clone 3F22 (scFv) scFv: QVQLQQSGPGLVKPSQTLSLTCAISGDSVSSNSAAWNWIRQSPSRGLEWLGRTYYRSKWYNDYAVSVKSRITINPDTSKNQFSLQLNSVTPEDTAVYYCARDPFGVPFDIWGQGTMVTVSSKLSGSASAPKLEEGEFSEARVSYVLTQPPSVSVAPGQTARVTCGGNNIRSKNVHWYQQKPGQAPVLVVYDDTDRPSGIPERFSGSNSGNTATLTVSRVEAGDEADYYCQVWDTTTDHVVFGGGTKLTVLAAAGSEQKLISEEDLNSHHHHHH | – | – | – | 20.6 | 20.6 | 36.7 | 41.4 | 68.8 | 114 | 173 | – | –
scFv mother clone 9P13 (scFv) scFv: QVQLQQSGPGLVKPSQTLSLTCAISGDSVSSNSAAWNWIRQSPSRGLEWLGRTYYRSKWYNDYAVSVKSRITINPDTSKNQFSLQLNSVTPEDTAVYYCARDPFGVPFDIWGQGTMVTVSSKLSGSASAPKLEEGEFSEARVSYELTQLPSVSVAPGQTARVTCGGNNIRSKNVHWYQQKPGQAPVLVVYDDTDRPSGIPERFSGSNSGNTATLTVSRVEAGDEADYYCQVWDTTTDHVVFGGGTKVTVLAAAGSEQKLISEEDLNSHHHHHH | – | – | – | 28.9 | 28.9 | 120 | 17.3 | 24.3 | 99.3 | 77.1 | – | Kd [6]: 220 nM
17N16 mother clone, wild type IgG4 format (antibody, V domains shown) VH: QVQLQQSGPGLVKPSQTLSLTCAISGDSVSSTSAAWNWIRQSPSRGLEWLGRTYYRSKWYNDYAVSVKSRITINPDTSKNQFSLQLNSVTPEDTAVYYCARDPFGVPFDIWGQGTMVTVSS VL: SYVLTQPPSVSVAPGQTARITCGGNNIGSKNVHWYQQKPGQAPVLVVYDDSDRPSGIPERFSGSNSGNTATLTVSRVEAGDEADYYCQVWDTTTDHVVFGGGTKLTVL | 5.45 | 3.09 | ~20 | – | – | – | – | – | – | – | – | C3b deposition assay in 90% NHS, IC50 [7]: 15 nM
scFv mutagenesis clone #35 of 17D20 (scFv, the mother scFv entry is used with this change; also called 17D20md#35 (monomer); 17D20md35) scFv: QVTLKESGPVLVKPTETLTLTCTVSGFSLSRGKMGVSWIRQPPGKALEWLAHIFSSDEKSYRTSLKSRLTISKDTSKNQVVLTMTNMDPVDTATYYCARIRRGGIDYWGQGTLVTVSSKLSGSASAPKLEEGEFSEARVQPVLTQPPSVSVSPGQTASITCSGDKLGDKFAYWYQQKPGHSPVLVIYQDNKRPSGIPGRFSGSNSGNTATLTISGTQAMDEADYYCQAWDSSTAVFGTGTKVTVLAAAGSEQKLISEEDLNSHHHHHH | – | – | – | – | – | – | – | – | – | – | – | Kd [8]: 1.2 nM
MoAb #4 (OMS644), 17D20_3521N11 IgG2 (antibody) heavy: QVTLKESGPVLVKPTETLTLTCTVSGFSLSRGKMGVSWIRQPPGKALEWLAHIFSSDEKSYRTSLKSRLTISKDTSKNQVVLTMTNMDPVDTATYYCARIRRGGIDYWGQGTLVTVSSASTKGPSVFPLAPCSRSTSESTAALGCLVKDYFPEPVTVSWNSGALTSGVHTFPAVLQSSGLYSLSSVVTVPSSNFGTQTYTCNVDHKPSNTKVDKTVERKCCVECPPCPAPPVAGPSVFLFPPKPKDTLMISRTPEVTCVVVDVSHEDPEVQFNWYVDGVEVHNAKTKPREEQFNSTFRVVSVLTVVHQDWLNGKEYKCKVSNKGLPAPIEKTISKTKGQPREPQVYTLPPSREEMTKNQVSLTCLVKGFYPSDIAVEWESNGQPENNYKTTPPMLDSDGSFFLYSKLTVDKSRWQQGNVFSCSVMHEALHNHYTQKSLSLSPGK light: QPVLTQPPSLSVSPGQTASITCSGEKLGDKYAYWYQQKPGQSPVLVMYQDKQRPSGIPERFSGSNSGNTATLTISGTQAMDEADYYCQAWDSSTAVFGGGTKLTVLGQPKAAPSVTLFPPSSEELQANKATLVCLISDFYPGAVTVAWKADSSPVKAGVETTTPSKQSNNKYAASSYLSLTPEQWKSHRSYSCQVTHEGSTVEKTVAPTECS | – | – | – | – | – | – | – | – | – | – | 18 | –
MoAb #5 (OMS645), 17D20_3521N11 IgG4 (antibody) heavy: not shown light: QPVLTQPPSLSVSPGQTASITCSGEKLGDKYAYWYQQKPGQSPVLVMYQDKQRPSGIPERFSGSNSGNTATLTISGTQAMDEADYYCQAWDSSTAVFGGGTKLTVLGQPKAAPSVTLFPPSSEELQANKATLVCLISDFYPGAVTVAWKADSSPVKAGVETTTPSKQSNNKYAASSYLSLTPEQWKSHRSYSCQVTHEGSTVEKTVAPTECS | – | – | – | – | – | – | – | – | – | – | 16 | Inhibition of Rat C3b IC50 [10]: 500 nM
MoAb #6 (OMS646), 17D20_3521N11 IgG4 mutant (S228P hinge) (antibody) heavy: not shown light: QPVLTQPPSLSVSPGQTASITCSGEKLGDKYAYWYQQKPGQSPVLVMYQDKQRPSGIPERFSGSNSGNTATLTISGTQAMDEADYYCQAWDSSTAVFGGGTKLTVLGQPKAAPSVTLFPPSSEELQANKATLVCLISDFYPGAVTVAWKADSSPVKAGVETTTPSKQSNNKYAASSYLSLTPEQWKSHRSYSCQVTHEGSTVEKTVAPTECS | – | – | – | – | – | – | – | – | – | – | 14 | Inhibition of Rat C3b IC50 [10]: > 500 nM
17D20 mother clone, wild type IgG4 format (antibody, V domains shown) VH: QVTLKESGPVLVKPTETLTLTCTVSGFSLSRGKMGVSWIRQPPGKALEWLAHIFSSDEKSYRTSLKSRLTISKDTSKNQVVLTMTNMDPVDTATYYCARIRAGGIDYWGQGTLVTVSS VL: QPVLTQPPSVSVSPGQTASITCSGDKLGDKFAYWYQQKPGHSPVLVIYQDNKRPSGIPGRFSGSNSGNTATLTISGTQAMDEADYYCQAWDSSTAVFGTGTKVTVLA | 7.39 | 10.3 | 22 | – | – | – | – | – | – | – | – | C4b deposition in 90% human serum, IC50 relative to the C3b deposition assay [7]: ~3 fold
scFv mother clone 18L16 (scFv) scFv: QVTLKESGPVLVKPTETLTLTCTVSGFSLSNARMGVSWIRQPPGKALEWLAHIFSNDEKSYSTSLKSRLTISKDTSKSQVVLTMTNMDPVDTATYYCARMAILTAGGMDVWGQGTTVTVSSKLSGSASAPKLEEGEFSEARVSYVLTQPPSVSASPGQTASITCSGDKLGDKYVSWYQQKPGRSPVLVIYRDTKRPSGIPERFSGSNYGNTATLTISGTQAVDEADYYCQAWDSGSGVFGGGTKVTVLAAAGSEQKLISEEDLNSHHHHHH | 160 | 193 | – | 6.1 | 6.1 | 96.8 | 52.3 | 53.5 | 65.6 | 128 | – | C3 Assay IC50 in dilute serum (1%), human serum Exp #1 [11]: 53 nM; C3 Assay IC50 in dilute serum (1%), human serum Exp #2 [11]: 52 nM; C3 Assay IC50 in dilute serum (1%), human serum Exp #3 [11]: 97 nM; C3 Assay IC50 in dilute serum (1%), human serum mean [11]: 67 nM; C3 Assay IC50, non-human primate serum Exp #1 [12]: 65 nM; C3 Assay IC50, non-human primate serum Exp #2 [12]: 154 nM; C3 Assay IC50, non-human primate serum mean [12]: 110 nM
